Data on one sequence can be found in publication PMC6306002.

This data set has as its system T1, OhsR-SSM (S-mycothiolated OhsR) (Corynebacterium glutamicum), ORF:a3d30e29.
T1 sequence: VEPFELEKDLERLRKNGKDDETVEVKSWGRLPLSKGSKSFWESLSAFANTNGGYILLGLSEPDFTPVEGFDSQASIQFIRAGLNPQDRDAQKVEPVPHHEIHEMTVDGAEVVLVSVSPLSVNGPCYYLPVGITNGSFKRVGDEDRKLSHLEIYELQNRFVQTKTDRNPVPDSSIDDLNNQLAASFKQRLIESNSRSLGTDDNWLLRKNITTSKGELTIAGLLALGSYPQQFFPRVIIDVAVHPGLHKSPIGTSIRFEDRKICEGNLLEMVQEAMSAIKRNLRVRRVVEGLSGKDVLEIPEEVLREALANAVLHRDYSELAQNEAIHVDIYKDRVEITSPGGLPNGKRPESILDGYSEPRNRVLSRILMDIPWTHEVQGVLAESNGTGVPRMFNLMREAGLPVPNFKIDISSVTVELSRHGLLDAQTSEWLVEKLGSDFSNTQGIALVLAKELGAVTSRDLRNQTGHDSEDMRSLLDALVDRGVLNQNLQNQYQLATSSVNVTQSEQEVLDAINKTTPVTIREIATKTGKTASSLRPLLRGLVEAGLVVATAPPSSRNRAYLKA
Description: EMSA. The following applies: EMSA: 20 mM Tris-HCl pH 7.4, 4 mM MgCl2, 100 mM NaCl, 10% glycerol, room temperature 30 min; 20 ng DNA, 0-4 ug OhsR; 6% native PAGE, 0.5x TBE, SYBR Green.

Take “CACCTTGTTGGTGGGCCGGGATTTTTGTTGTTTAGATTTTTGAAAGCACACTTTTGTCCCTTAACTAGTGCGTGTGTACATTCGACACCAAGATTTGGGCAATATGGTGCCCAAAATCAGGAAATCTTGCTGTCTAATGCACAACGGAAAACTGCTCACGGACGAACTAGTTGTAGCGAGCGTATTCTTTGTGTTCTCTC (double strand) [Pohr (ohr promoter, 200 bp)]”: the binding entry is “binds”.
